Measurements taken from publication PMC2756588.

T1: Lsb4, P32793
T1 sequence (P32793 402-468, looked up): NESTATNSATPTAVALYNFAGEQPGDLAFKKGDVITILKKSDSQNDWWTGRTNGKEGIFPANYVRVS

T2: Nbp2, Q12163
T2 sequence (Q12163 103-180, looked up): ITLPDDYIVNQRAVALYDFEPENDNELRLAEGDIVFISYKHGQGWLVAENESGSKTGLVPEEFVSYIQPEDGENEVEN

T3: Sla1-2, P32790
T3 sequence (P32790 60-140, looked up): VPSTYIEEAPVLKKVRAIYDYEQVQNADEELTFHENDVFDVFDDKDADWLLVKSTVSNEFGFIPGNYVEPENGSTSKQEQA

T4: Pex13, P80667
T4 sequence (P80667 295-386, looked up): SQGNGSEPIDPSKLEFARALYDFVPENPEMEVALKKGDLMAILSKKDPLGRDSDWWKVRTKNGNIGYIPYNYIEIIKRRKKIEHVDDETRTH

T5: Boi2, P39969
T5 sequence (P39969 32-116, looked up): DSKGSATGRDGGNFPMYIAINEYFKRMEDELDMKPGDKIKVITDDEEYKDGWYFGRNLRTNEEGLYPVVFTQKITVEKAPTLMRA

T6: Lsb3, P43603
T6 sequence (P43603 385-451, looked up): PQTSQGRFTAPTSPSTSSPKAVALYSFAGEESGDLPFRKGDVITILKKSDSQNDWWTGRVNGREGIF

T7: Abp1, P15891
T7 sequence (P15891 535-592, looked up): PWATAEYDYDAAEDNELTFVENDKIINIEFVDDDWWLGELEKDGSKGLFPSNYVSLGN

T8: Boi1, P38041
T8 sequence (P38041 1-86, looked up): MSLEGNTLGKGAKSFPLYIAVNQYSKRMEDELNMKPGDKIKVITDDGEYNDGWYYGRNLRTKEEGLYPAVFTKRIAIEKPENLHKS

T9: Myo5, Q04439
T9 sequence (Q04439 1072-1160, looked up): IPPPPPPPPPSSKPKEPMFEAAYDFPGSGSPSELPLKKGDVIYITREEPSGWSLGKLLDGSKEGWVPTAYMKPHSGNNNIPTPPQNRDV

T10: Bbc1, P47068
T10 sequence (P47068 1-78, looked up): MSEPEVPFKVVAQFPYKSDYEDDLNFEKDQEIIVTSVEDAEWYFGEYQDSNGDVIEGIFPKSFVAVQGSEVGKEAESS

T11: Cyk3, Q07533
T11 sequence (Q07533 1-83, looked up): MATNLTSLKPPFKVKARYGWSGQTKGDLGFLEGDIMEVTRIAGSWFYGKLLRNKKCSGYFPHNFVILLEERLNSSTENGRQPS

T12: Pin3, Q06449
T12 sequence (Q06449 53-122, looked up): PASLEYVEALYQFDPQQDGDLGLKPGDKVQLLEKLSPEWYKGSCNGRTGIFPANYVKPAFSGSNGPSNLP

T13: Bzz1-2, P38822
T13 sequence (P38822 568-633, looked up): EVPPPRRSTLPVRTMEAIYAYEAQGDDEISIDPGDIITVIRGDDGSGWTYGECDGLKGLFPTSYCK

T14: Sla1-3, P32790
T14 sequence (P32790 344-424, looked up): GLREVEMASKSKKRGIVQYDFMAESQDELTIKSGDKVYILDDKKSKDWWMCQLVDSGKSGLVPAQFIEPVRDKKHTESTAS

T15: Hse1, P38753
T15 sequence (P38753 208-285, looked up): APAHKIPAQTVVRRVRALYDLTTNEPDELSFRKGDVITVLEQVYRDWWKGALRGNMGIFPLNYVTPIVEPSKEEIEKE

T16: Bud14, P27637
T16 sequence (P27637 247-328, looked up): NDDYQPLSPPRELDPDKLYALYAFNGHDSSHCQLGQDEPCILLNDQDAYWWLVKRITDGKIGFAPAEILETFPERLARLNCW

T17: Cdc25, P04821
T17 sequence (P04821 50-136, looked up): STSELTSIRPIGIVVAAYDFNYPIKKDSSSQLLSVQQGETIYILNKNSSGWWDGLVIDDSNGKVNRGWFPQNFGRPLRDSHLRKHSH

T18: Lsb1, P53281
T18 sequence (P53281 45-122, looked up): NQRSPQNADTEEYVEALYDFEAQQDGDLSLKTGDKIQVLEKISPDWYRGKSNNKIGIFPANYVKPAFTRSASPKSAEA

T19: Hof1, Q05080
T19 sequence (Q05080 590-669, looked up): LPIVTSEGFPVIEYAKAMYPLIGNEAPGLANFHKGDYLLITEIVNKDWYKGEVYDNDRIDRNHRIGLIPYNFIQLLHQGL

T20: Bzz1-1, P38822
T20 sequence (P38822 478-572, looked up): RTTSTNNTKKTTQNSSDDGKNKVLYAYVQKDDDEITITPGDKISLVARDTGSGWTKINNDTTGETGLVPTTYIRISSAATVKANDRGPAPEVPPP

T21: Fus1, P11710
T21 sequence (P11710 432-512, looked up): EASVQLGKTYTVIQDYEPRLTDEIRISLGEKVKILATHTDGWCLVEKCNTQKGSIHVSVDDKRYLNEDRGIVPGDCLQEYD


molecular target: Bem1-2, P29366; assay: SPOT array; details: median of control spots 4347
Sequence (P29366 139-227): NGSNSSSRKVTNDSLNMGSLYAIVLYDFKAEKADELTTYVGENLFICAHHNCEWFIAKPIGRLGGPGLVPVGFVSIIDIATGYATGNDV

SPOT intensity	Binder
0	VQPTAAPATPPRHIS
1	QQNRPLPQLPNRNNR
0	PALPSLPPPPLLNVD

molecular target: T1, Lsb4, P32793; assay: SPOT array; details: median of control spots 397

SPOT intensity	Binder
251	VQPTAAPATPPRHIS
484	QQNRPLPQLPNRNNR
0	PALPSLPPPPLLNVD

molecular target: T2, Nbp2, Q12163; assay: SPOT array; details: median of control spots 357

SPOT intensity	Binder
0	VQPTAAPATPPRHIS
0	QQNRPLPQLPNRNNR
0	PALPSLPPPPLLNVD

molecular target: T3, Sla1-2, P32790; assay: SPOT array; details: median of control spots 712

SPOT intensity	Binder
0	VQPTAAPATPPRHIS
0	QQNRPLPQLPNRNNR
0	PALPSLPPPPLLNVD

molecular target: Sho1, P40073; assay: SPOT array; details: median of control spots 1148
Sequence (P40073 287-367): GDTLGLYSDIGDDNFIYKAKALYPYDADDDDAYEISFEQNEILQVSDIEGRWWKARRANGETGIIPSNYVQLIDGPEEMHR

SPOT intensity	Binder
0	VQPTAAPATPPRHIS
1600	QQNRPLPQLPNRNNR
83	PALPSLPPPPLLNVD

molecular target: T4, Pex13, P80667; assay: SPOT array; details: median of control spots 1341

SPOT intensity	Binder
0	VQPTAAPATPPRHIS
589	QQNRPLPQLPNRNNR
2	PALPSLPPPPLLNVD

molecular target: T5, Boi2, P39969; assay: SPOT array; details: median of control spots 1161

SPOT intensity	Binder
0	VQPTAAPATPPRHIS
1	QQNRPLPQLPNRNNR
0	PALPSLPPPPLLNVD

molecular target: Myo3, P36006; assay: SPOT array; details: median of control spots 468

SPOT intensity	Binder
0	VQPTAAPATPPRHIS
0	QQNRPLPQLPNRNNR
598	PALPSLPPPPLLNVD

molecular target: GST; assay: SPOT array; details: median of control spots 978

SPOT intensity	Binder
0	VQPTAAPATPPRHIS
0	QQNRPLPQLPNRNNR
0	PALPSLPPPPLLNVD

molecular target: T6, Lsb3, P43603; assay: SPOT array; details: median of control spots 406

SPOT intensity	Binder
251	VQPTAAPATPPRHIS
484	QQNRPLPQLPNRNNR
0	PALPSLPPPPLLNVD

molecular target: T7, Abp1, P15891; assay: SPOT array; details: median of control spots 935

SPOT intensity	Binder
0	VQPTAAPATPPRHIS
228	QQNRPLPQLPNRNNR
0	PALPSLPPPPLLNVD

molecular target: T8, Boi1, P38041; assay: SPOT array; details: median of control spots 1162

SPOT intensity	Binder
0	VQPTAAPATPPRHIS
1	QQNRPLPQLPNRNNR
0	PALPSLPPPPLLNVD

molecular target: T9, Myo5, Q04439; assay: SPOT array; details: median of control spots 471

SPOT intensity	Binder
0	VQPTAAPATPPRHIS
0	QQNRPLPQLPNRNNR
688	PALPSLPPPPLLNVD

molecular target: Rvs167, P39743; assay: SPOT array; details: median of control spots 2707
Sequence (P39743 419-482): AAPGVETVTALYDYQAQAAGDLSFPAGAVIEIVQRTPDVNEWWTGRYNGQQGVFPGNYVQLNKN

SPOT intensity	Binder
12	VQPTAAPATPPRHIS
1310	QQNRPLPQLPNRNNR
0	PALPSLPPPPLLNVD

molecular target: T10, Bbc1, P47068; assay: SPOT array; details: median of control spots 796

SPOT intensity	Binder
2	VQPTAAPATPPRHIS
40	QQNRPLPQLPNRNNR
0	PALPSLPPPPLLNVD

molecular target: T11, Cyk3, Q07533; assay: SPOT array; details: median of control spots 1451

SPOT intensity	Binder
0	VQPTAAPATPPRHIS
0	QQNRPLPQLPNRNNR
0	PALPSLPPPPLLNVD

molecular target: T12, Pin3, Q06449; assay: SPOT array; details: median of control spots 2171

SPOT intensity	Binder
0	VQPTAAPATPPRHIS
34	QQNRPLPQLPNRNNR
0	PALPSLPPPPLLNVD

molecular target: T13, Bzz1-2, P38822; assay: SPOT array; details: median of control spots 4538

SPOT intensity	Binder
0	VQPTAAPATPPRHIS
0	QQNRPLPQLPNRNNR
0	PALPSLPPPPLLNVD

molecular target: T14, Sla1-3, P32790; assay: SPOT array; details: median of control spots 5475

SPOT intensity	Binder
5	VQPTAAPATPPRHIS
10	QQNRPLPQLPNRNNR
0	PALPSLPPPPLLNVD

molecular target: Bem1-1, P29366; assay: SPOT array; details: median of control spots 4282
Sequence (P29366 55-141): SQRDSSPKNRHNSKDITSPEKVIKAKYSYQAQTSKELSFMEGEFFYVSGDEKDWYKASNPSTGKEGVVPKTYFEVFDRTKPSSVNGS

SPOT intensity	Binder
2	VQPTAAPATPPRHIS
3	QQNRPLPQLPNRNNR
0	PALPSLPPPPLLNVD

molecular target: T15, Hse1, P38753; assay: SPOT array; details: median of control spots 1727

SPOT intensity	Binder
0	VQPTAAPATPPRHIS
23	QQNRPLPQLPNRNNR
0	PALPSLPPPPLLNVD

molecular target: T16, Bud14, P27637; assay: SPOT array; details: median of control spots 956

SPOT intensity	Binder
0	VQPTAAPATPPRHIS
4	QQNRPLPQLPNRNNR
1	PALPSLPPPPLLNVD

molecular target: T17, Cdc25, P04821; assay: SPOT array; details: median of control spots 969

SPOT intensity	Binder
2	VQPTAAPATPPRHIS
2	QQNRPLPQLPNRNNR
0	PALPSLPPPPLLNVD

molecular target: T18, Lsb1, P53281; assay: SPOT array; details: median of control spots 388

SPOT intensity	Binder
45	VQPTAAPATPPRHIS
176	QQNRPLPQLPNRNNR
0	PALPSLPPPPLLNVD

molecular target: T19, Hof1, Q05080; assay: SPOT array; details: median of control spots 4086

SPOT intensity	Binder
0	VQPTAAPATPPRHIS
112	QQNRPLPQLPNRNNR
6720	PALPSLPPPPLLNVD

molecular target: T20, Bzz1-1, P38822; assay: SPOT array; details: median of control spots 4446

SPOT intensity	Binder
0	VQPTAAPATPPRHIS
4	QQNRPLPQLPNRNNR
2	PALPSLPPPPLLNVD

molecular target: T21, Fus1, P11710; assay: SPOT array; details: median of control spots 1200

SPOT intensity	Binder
13	VQPTAAPATPPRHIS
2	QQNRPLPQLPNRNNR
0	PALPSLPPPPLLNVD
